According to publication PMC4838878:

What was measured:
[1] = target: Myc-Lphn3 with a C-terminal Avitag [mouse]; assay: anti-GFP (mV) pull-down, quantified blot; conditions: lysate of HEK293 cells co-transfected with FLAG-FLRT2; averaged over 3-4 independent experiments; parent: 1.1; read off a plot
[2] = target: HA-Unc5D with a C-terminal Avitag [rat]; assay: anti-GFP (mV) pull-down, quantified blot; conditions: lysate of HEK293 cells co-transfected with FLAG-FLRT2; averaged over 3-4 independent experiments; parent: 1; read off a plot

response (normalized intensity) [1] | response (normalized intensity) [2] | Substance
0.35 |  | HA-Unc5D mono-Venus fusion protein (HA-Unc5D-mV) mutant W89N; H91T [rat] / Myc-Lphn3 with a C-terminal Avitag [mouse] chain 1 W44N, chain 1 H46T
 | 0.41 | Myc-Lphn3-mV mutant R292N; R294T [mouse] / HA-Unc5D with a C-terminal Avitag [rat] chain 1 R273N, chain 1 R275T
